Measurements published in patent US20180037638A1 (SORRENTO THERAPEUTICS, published 2018).

What was measured:
[1] = molecular target: AIP1 (Staphylococcus aureus); assay: cell-based or functional assay
[2] = molecular target: AIP4 (Staphylococcus aureus); assay: cell-based or functional assay

B1: E7 (antibody, V domains shown)
VH: EVQLVQSGAEVKKPGASVRVSCKTSGYSFTSYDINWVRQTTGQGLEWMGWVNPTSGSTGYAQKFQGRVTMTANTAINTAYMELRDLRSEDTAVYFCVRDVPFDPWGQGTLVTVSS
VL: LQSVLTQPASVSGSPGQSITISCTGTSSDVGKYTFVSWYQQHPGKAPKVMVYEVNKRPLGVSPRFSGSKSGNTAYLTISGLQAEDEADYYCSSYTSSSTVVFGGGTKLTVL
- Inhibition of AIP1 QS (IC50; nM), agr-driven YFP reporter strain USA300-LAC [1]: 91.1 nM
- Inhibition of AIP4 QS (IC50; nM), agr-driven YFP reporter strain MnTG [2]: 53.5 nM

B2: C7 (antibody, V domains shown)
VH: EVQLVQSGAEMKKPGASMKVSCKTSGYTFARKYMHWLRQAPGQGLEWMGIINPTGGTKSYAPKFQGRVTMTSDMSTNTVYMELNSLRSEDTAVYYCVSDDEEPVWGQGTMVTVSS
VL: QSALTQPPSVSKGLRQTATLTCTGNSNNVGSQGAAWLQQHQGHPPKVLSYRNNNRPSGISERFSASRSGNTASLTITGLQPEDEGDYYCSAWDSSLSAPVFGGGTKLTVL
- Inhibition of AIP1 QS (IC50; nM), agr-driven YFP reporter strain USA300-LAC [1]: 110 nM
- Inhibition of AIP4 QS (IC50; nM), agr-driven YFP reporter strain MnTG [2]: 86 nM
